As usually defined, the stoichiometry N is the number of molecules, sites or subunits per partner or assembly.

The target in data set [1] is CtHsp104ΔN2R encoding the R328M/R757M mutations (Calcarisporiella thermophila). As to the kind of experiment: SEC; purified Hsp104wt and Hsp104mt on a superdex-200 10/300GL column; molecular weights in Table S2.
In data set [2] the target is Calcarisporiella thermophila CtHsp104ΔN (153–883 aa) (Calcarisporiella thermophila). The description is as above.
Data set [3] deals with the molecule itself. Briefly: SEC; Hsp104fl and PCSK9 co-expressed in E. coli, complex purified by Ni-NTA, TEV cleavage and SEC; molecular weights in Table S2.

On to “CtHsp104ΔN2R encoding the R328M/R757M mutations (domain or fragment)”, for which the stoichiometry N in data set [1] is 6.

For the molecule “Calcarisporiella thermophila CtHsp104ΔN (153–883 aa) (domain or fragment)”, in data set [2], the stoichiometry N is 6.

B1: Thermochaetoides thermophila TtHsp104 full length (natural protein, UniProt A0A2Z6G185 1-926, looked up)
chain: MNSKMEFTDRAKKALEDAMALAEQYQHLQLQPVHLAVALLDPTPDPSKDQSAAPGTTSTLFRQVVERAHGDAQAFDRALKKKLVRLPSQDPPPDQVSMSAGCSSVLRKANELQKVQKDSYIAVDHLIAALAEDHTIQEALKEANIPKPKLVQDAIQAIRGNKRVDSRNADTEQENENLSKFCIDMTAMAREGKIDPVIGREEEIRRVIRILSRRTKNNPVLIGEPGVGKTTIVEGLAQRIVNADVPDNLAACKLLSLDVGALVAGSKYRGEFEERMKGVLKEIQESKETIILFVDEIHLLMGAGSSGEGGMDAANLLKPMLARGQLHCIGATTLAEYRKYIEKDAAFERRFQQVLVKEPSITETISILRGLKEKYEVHHGVNIADAAIVAAANLAARYLTSRRLPDSAVDLIDEAAAAVRVARESQPEIIDSLERRLRQLKIEIHALSREKDEASKARLAQAKQDAQNVEEELRPLREKYERERQRGKAIQEAKMKLEALRVKAEDASRMGDHSRAADLQYYAIPEQEAIIKRLEAEKAAADAALNANGADVGGSMITDVVGPDQINEIVARWTGIPVTRLKTSEKEKLLHMEQALSKIVVGQKEAVQSVSNAIRLQRSGLSNPNQPPSFLFCGPSGTGKTLLTKALAEFLFDDPKSMIRFDMSEYQERHSLSRMIGAPPGYVGHDAGGQLTEALRRRPFSILLFDEVEKAAKEVLTVLLQLMDDGRITDGQGRVVDAKNCIVVMTSNLGAEYLSRANNGKDGKIDPTTRELVMNTLRNYFLPEFLNRISSIVIFNRLTRREIRKIVDLRIAEIQKRLTDNDRNVTIKVSDEAKDKLGAQGYSPVYGARPLQRLLEKEVLNRLAILILRGQIREGEVACVELVDGKVQVLPNHPDSEPEDVDVDMESDDAVDEVAPDSMDEDIYND
notes: Hsp104 of Thermochaetoides thermophila, full length; Hexamer in the complex with PCSK9 by SEC; also called Hsp104fl; source: E. coli BL21, co-expressed with PCSK9, complex purified (Ni-NTA, TEV cleavage, SEC)
Take B1: the “stoichiometry N” value in data set [3] was determined as 6.

These data come from PMC12127886, “Mapping Hsp104 interactions using cross‐linking mass spectrometry” (FEBS Open Bio, 2025).
